The text below walks through data of paper doi:10.1101/2025.10.27.684836 (bioRxiv, 2025).

Data set [1] deals with His-MBP-SALL4(QID-ZFC4) fusion protein (mouse). In words: SEC-MALS. In general terms: Size exclusion chromatography separates by hydrodynamic size, large species first.
The next data set addresses T1, SALL4 QID-ZFC4 (UniProt Q8BX22 201-240+870-940, internal_change).
T1 sequence: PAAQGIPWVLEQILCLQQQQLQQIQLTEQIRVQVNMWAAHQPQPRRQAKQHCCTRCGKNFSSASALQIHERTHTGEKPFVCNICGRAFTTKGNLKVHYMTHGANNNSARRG
As to the kind of experiment: SPR. (SPR reads the build-up and loss of mass on a sensor chip optically.)

The data set “SEC-MALS” deals with the molecule itself. In words: SEC-MALS.

For orientation: stoichiometry N means a count of units in the complex or per binding partner.

For “His-MBP-SALL4(QID-ZFC4) fusion protein (domain or fragment)”, the stoichiometry N in data set [1] was 4.

B1: SPR probe, single ATATTA motif (dsDNA)
DNA 1: AGCAGGCCTAATATCGCAC
DNA 2: GTGCGATATTAGGCCTGCT
Consider B1, for which, in the data set with SALL4 QID-ZFC4, the binding result was “binds”. With GAEAPMAPMPAAQGIPWVLEQILCLQQQQLQQIQLTEQIRVQVNMW (domain or fragment, mouse, UniProt Q8BX22 192-237, looked up) [recombinant SALL4 QID (192-237) peptide], in “SEC-MALS”, the “stoichiometry N” value is 4.
